{"source": "paper doi:10.1101/2023.12.09.570908", "about": "(bioRxiv, 2023)", "binders": {"B1": {"name": "PTENα-NTE^116-148 peptide (peptide)", "peptide": "SSRRSSHYPAAVQSQAAAERGASATAKSRAISI"}}, "key": {"WDR5^22-334 [1]": {"target": "T1, WDR5^22-334 (human, UniProt P61964 22-334)", "assay": "ITC"}, "WDR5^22-334 [2]": {"target": "T1, WDR5^22-334", "assay": "ITC", "remark": "listed apart in the source"}}}
{"binder": "B1", "values": [{"measurement": "Kd against the 1:1 mixture of WDR5^22-334 and H3^1-15", "setting": "WDR5^22-334 [1]", "value": "32 ± 3", "unit": "µM"}, {"measurement": "Kd", "setting": "WDR5^22-334 [2]", "value": 3.8, "unit": "µM"}]}
